We go through two molecules from publication PMC4387718, “In vivo biochemical analyses reveal distinct roles of β-importins and eEF1A in tRNA subcellular traffic” (Genes & Development, 2015).

Assay [1] concerns the target T1, MORF (His6-HA epitope-ZZ protein A)-tagged Msn5 (S. cerevisiae, UniProt P52918 1-1224).
T1 construct: Msn5, beta-importin family member (yeast exportin-5 homolog), S. cerevisiae; Tagged protein is functional; also called Msn5-M; exportin-5 homolog; source: S. cerevisiae, endogenous promoter on a yeast episomal (YEp) vector, in cell extract
T1 sequence (looked up): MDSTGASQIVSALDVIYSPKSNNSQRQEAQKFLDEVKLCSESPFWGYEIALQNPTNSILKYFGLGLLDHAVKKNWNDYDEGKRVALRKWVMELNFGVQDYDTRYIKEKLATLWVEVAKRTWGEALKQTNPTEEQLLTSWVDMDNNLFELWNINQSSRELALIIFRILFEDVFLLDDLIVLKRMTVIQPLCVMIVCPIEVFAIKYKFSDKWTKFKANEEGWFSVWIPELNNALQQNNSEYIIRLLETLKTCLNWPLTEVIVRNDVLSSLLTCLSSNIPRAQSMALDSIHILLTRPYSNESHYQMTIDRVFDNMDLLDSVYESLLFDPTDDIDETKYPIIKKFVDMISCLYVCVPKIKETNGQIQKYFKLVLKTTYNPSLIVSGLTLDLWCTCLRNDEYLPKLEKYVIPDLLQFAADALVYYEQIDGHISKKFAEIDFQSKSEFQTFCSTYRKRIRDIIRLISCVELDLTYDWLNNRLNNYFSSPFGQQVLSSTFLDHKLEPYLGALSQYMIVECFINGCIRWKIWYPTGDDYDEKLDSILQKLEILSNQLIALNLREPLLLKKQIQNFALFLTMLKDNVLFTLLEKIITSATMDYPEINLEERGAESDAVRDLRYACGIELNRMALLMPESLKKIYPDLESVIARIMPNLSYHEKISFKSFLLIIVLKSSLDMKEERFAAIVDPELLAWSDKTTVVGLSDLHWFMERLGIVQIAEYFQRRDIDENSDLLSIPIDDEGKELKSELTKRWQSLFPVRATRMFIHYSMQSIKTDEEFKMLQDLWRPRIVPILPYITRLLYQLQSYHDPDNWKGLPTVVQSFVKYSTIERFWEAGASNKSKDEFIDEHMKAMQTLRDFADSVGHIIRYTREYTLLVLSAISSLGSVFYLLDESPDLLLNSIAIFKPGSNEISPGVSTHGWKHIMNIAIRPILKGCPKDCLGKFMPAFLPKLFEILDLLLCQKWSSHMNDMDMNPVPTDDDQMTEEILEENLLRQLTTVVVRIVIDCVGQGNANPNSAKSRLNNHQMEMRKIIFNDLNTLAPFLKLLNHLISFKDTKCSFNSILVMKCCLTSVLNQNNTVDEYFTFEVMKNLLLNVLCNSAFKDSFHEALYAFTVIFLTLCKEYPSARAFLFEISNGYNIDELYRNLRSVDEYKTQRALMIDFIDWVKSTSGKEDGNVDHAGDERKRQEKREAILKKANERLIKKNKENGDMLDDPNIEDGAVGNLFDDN
Briefly: co-IP; cells with locked RanGTP, formaldehyde cross-linked; extract treated with RNase A prior to purification of the beta-importin on IgG beads; Western blot with anti-eEF1A. Particulars: partners not purified. For orientation: In western blotting, separated proteins are transferred to a membrane and probed.

For assay [2], the target named is T1, MORF (His6-HA epitope-ZZ protein …). In words: co-IP; cells with RanGTP-locked mutant, without cross-linking; complex immunoprecipitated on beads first and then treated with RNase A (condition R*); Western blot with anti-eEF1A. Particulars: partners not purified.

B1: untagged Tef2 (natural protein, S. cerevisiae (endogenous in yeast), UniProt P02994 1-458, looked up)
chain: MGKEKSHINVVVIGHVDSGKSTTTGHLIYKCGGIDKRTIEKFEKEAAELGKGSFKYAWVLDKLKAERERGITIDIALWKFETPKYQVTVIDAPGHRDFIKNMITGTSQADCAILIIAGGVGEFEAGISKDGQTREHALLAFTLGVRQLIVAVNKMDSVKWDESRFQEIVKETSNFIKKVGYNPKTVPFVPISGWNGDNMIEATTNAPWYKGWEKETKAGVVKGKTLLEAIDAIEQPSRPTDKPLRLPLQDVYKIGGIGTVPVGRVETGVIKPGMVVTFAPAGVTTEVKSVEMHHEQLEQGVPGDNVGFNVKNVSVKEIRRGNVCGDAKNDPPKGCASFNATVIVLNHPGQISAGYSPVLDCHTAHIACRFDELLEKNDRRSGKKLEDHPKFLKSGDAALVKFVPSKPMCVEAFSEYPPLGRFAVRDMRQTVAVGVIKSVDKTEKAAKVTKAAQKAAKK
notes: Tef2, yeast translation elongation factor 1 alpha (eEF1A), product of TEF2; Detected with anti-eEF1A; comigrates with Tef1-Myc; also called Tef1/2; eEF1A; source: endogenous, S. cerevisiae cell extract
In the case of B1, the “percent of copurified Tef1/2 relative to mock treatment” value was around 90% in assay [1] and around 40% in assay [2].

B2: endogenously 3Myc-tagged Tef1 (natural protein, S. cerevisiae, UniProt P02994 1-458, looked up)
chain: MGKEKSHINVVVIGHVDSGKSTTTGHLIYKCGGIDKRTIEKFEKEAAELGKGSFKYAWVLDKLKAERERGITIDIALWKFETPKYQVTVIDAPGHRDFIKNMITGTSQADCAILIIAGGVGEFEAGISKDGQTREHALLAFTLGVRQLIVAVNKMDSVKWDESRFQEIVKETSNFIKKVGYNPKTVPFVPISGWNGDNMIEATTNAPWYKGWEKETKAGVVKGKTLLEAIDAIEQPSRPTDKPLRLPLQDVYKIGGIGTVPVGRVETGVIKPGMVVTFAPAGVTTEVKSVEMHHEQLEQGVPGDNVGFNVKNVSVKEIRRGNVCGDAKNDPPKGCASFNATVIVLNHPGQISAGYSPVLDCHTAHIACRFDELLEKNDRRSGKKLEDHPKFLKSGDAALVKFVPSKPMCVEAFSEYPPLGRFAVRDMRQTVAVGVIKSVDKTEKAAKVTKAAQKAAKK
notes: Tef1, yeast translation elongation factor 1 alpha (eEF1A), product of TEF1; Detected with anti-eEF1A and anti-Myc; comigrates with untagged Tef2, so the anti-eEF1A signal called Tef1/2 is of both; also called Tef1-Myc; Tef1/2; source: endogenously tagged, S. cerevisiae cell extract
For the molecule B2, the “percent of copurified Tef1/2 relative to mock treatment” value in assay [1] was around 90%; in assay [2], around 40%.
